Assay results as given in the nanobody polyreactivity screen of Harvey et al. (2022).

Assay: yeast display, Sf9 membrane polyspecificity reagent, FACS + sequencing; frameworks hold sequencing errors
Method in brief: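 Using colony PCR, genes from sorted yeast display clones were amplified, then sequenced on MiSeq at 2 × 250 and filtered by CDR length. The clones had been stained with 10% biotinylated, detergent-solubilized Sf9 membrane reagent for 1 hour at 4 °C and sorted by FACS into low and high (top ~1%) gates on anti-HA and streptavidin fluorescence. Polyreactivity labels come from the gate of origin.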

Row | Sequence | polyreactivity (PSR sort gate)
1 | QVQLVESGGGLVQAGGSLRLSCAASGNIFPYYPMGWYRQAPGKERELVASISRSGGSTYYADSVKGRFTISRDNAKNTVYLQMNSLKPEDTAVYYCAKRTPYYGFGFFHPARGYGYWGQGTQVTVSS | low polyreactivity
2 | QVQIVESGGGLVQAGGTLRLSCAASGLTFAYYDMGWYSQAPGKERELVAAITSVGTTNYADSVKGRFSISRDNSKNTVYLKMNSLKPEDTAVYYCNADYFSRIVGDRIYDYCGQGTQVTVSS | low polyreactivity
3 | QVQLVESGGGLVQAGGSLRLSCAASGRIFTSNAMGWYRQAPGKERELVAAISGSGGRTYYADSVKGRFTISRDNAKNTVYLQMNSLKPEDTAVYYCAVGTRVKYDYWGQGTQVTVSS | high polyreactivity
4 | QVQLVESGGGLVQAGGTLRFSCAASGLTIDRYAMGWYRQAPGKERELVAAISFTGDRTYYADSVKGRFTISRDNAKNTVYLQMNSLKPEDTAVYYCAVRRYGYRKYDSWGQGTQVTVSS | high polyreactivity
5 | QVQLVETGGGLVQAGGSLRLSCAASGRIFGHYVMGWYRPAPGTERELVAAITWRGGSTYYADSVKGRFTISRDYAKNTVYLQMNSLKPEDTAVYDCNASPSEVRRRYDYWGQGTQVTVSS | high polyreactivity
6 | QVQLVESGGGLVQAGGSLRLSCAASGSTFGYYAMGWYRQAPGKERELVAAISGSGGSTYYADSVKGRFTISRDNAKNTVYLQMNSLKPEDTAVYYCAATFHRLPKWGSPYYYWGQGTQVTVSS | high polyreactivity
7 | QVQLVESGGGLVQAGGSLRLSCDASGSIFRAYAMRWYRQAPGKERELVAAISSSSGRTYYADSVKGRFTISRDNAKTTVYLQLNSLKPEDTAVYYCAVTASTLVTSATYDYWGQGTQVTLSS | low polyreactivity
8 | QVQLVESGGGLVKARGSLLLSCAASGFTFPYNAMGWYRQAPGKDRELVAAISWSGGSTYYADSVKGRFTLSRDNAKNTVYLQMNSLKPEDTAVYYCAASYWWIPMEYWGQVTQVTVSS | high polyreactivity
9 | QVQLVESGGGLVQAGGSLRLSCAASGSIIRQNAMGWYRQAPGKERELVAAISFSGTSTYYADSVKGRFTISRDNAKNTVYLQMNSLKPEDTAVYYCAVDNISYWAVENDYWGQGTQVTVSS | low polyreactivity
10 | QVQLVESGGGLVQAGCSLRLSCDASGSTFNWNAMGRYRQAPGKERELVAVIRRNGATTNYADSVKGRFTISRDNAKITVYLQMNSLKPEDTAVYYCAVAKWQPRRRKYYYWGQGTQVTVSS | high polyreactivity
11 | QVQLVESGGGLVQAGGSLRLSCAASGSTFRFYAMGWYRQAPGKERELVATISSSGGTTYYADSVKGRFTISRDNAKNTVYLQMNSLKPEDTAVYYCAKDAFGWGRVYYYRSGYWGQGTQVTVSS | high polyreactivity
12 | QVQLVESGGGLVQAGGSLRLSCAASGSTFWPNAMGWYRQAPGKERELVAAITGGGGTNYADSVKGRFTISRDNAKNTVYLQMNSLKPEDTAVYYCAAKKVNSRSHVKYYYWGQGTQVTVSS | high polyreactivity
13 | QVQLVESGGGLVQAGGSLRLSCAASGSILIGNAMGWYRQAPGKERELVAGISSDVSTNYADSVKGRFTISRDNAKNTVYLQMNSLNPEDTAVYYCNKDAGPFQEHLYSWGYDSWGQGTQVTVSS | low polyreactivity
14 | QVQLVESGGGLVQAGGSLRLSCAASGRIFRYNAMGWYRQAPGKERELVATITDGGSTSYADSVKGRFTISRDNAKNTVYLQMNSLKPEDTAVYYCARDPLPSYWKVWSRPTFDYWGQGTQVTVSS | low polyreactivity
15 | QVQLVESGGGLVQAGGSLRLSCAASGSTFKRNAMGWYRQAPGKERELVAAISWRGTSTYYADSVKGRFTISRDNAKNTVYLQMNSLKPEDTAVYYCAADRGSSVRYGYWGQGTQVTVSS | high polyreactivity
16 | QVQLVESGGGLVQAGGSLRLSCAASGSTFSYYAMGWYRQAPGKERELVAAISWSGGSKYYADSVKGRFTISRDNAKNTVYLQMNSLKPEDTAVYYCAVYYSYWFDYWGQGTQVTVSS | high polyreactivity
17 | QVQLVESGGGLVQAGGSLRLSCAASGRIFYRYAMGWYRQAPGKERELVASIRFSDGSTYYADSVKGRFTISRDNAKNTVYLQMNSLKPEDTALYYCAARPLRSRNGYYWGQGTQVTVSS | high polyreactivity
18 | QVQLVESGGGLVQAGGSLRLSCAASGFIFRTYAMGWYRQAPGKERELVATITGDGSTNYADSVKGRFTISRDNAKNTVYLQMNSLKPEDTAVYYCSRDDRLAGDYWGQGTQVTVSS | low polyreactivity
19 | QVQLVESGGGLVQAGGSLRLSCAASGRTFVFNAMGWYRQAPGKERELVAGISGSGGSTYYADSVKGRFTISRDNAKNTVYLQMNSLKPEDTAVYYCATKFPRKELDQDSVSGLGYWGQGTQVTVSS | low polyreactivity
20 | QVQLVESGGGLVQAGGSLRLSCAASGFTSWQYAMGWYRQAPGKERELVAAISVSGASTNYADSVRGRFTISRDNAKNTVYLQMNSLKPEETAVYYCAAAYVRYPTTRYYYWGQGTQVTVSS | high polyreactivity
21 | QVQLVESGGGLVQAGGSLRLSCAASGFIYKYAMGWYRPAPGKERELVAAISQNGGSTRYADSVKGRFTISRDNAKNTVYLQMNSLKPEDTAVYYCNTGVARGYKYWGQGTQVTVSS | high polyreactivity
22 | QVQLVESGGGLVQAGGSLRISCAASGRTFWYYAKGWDRQAPGKEREFVAAISWSGGSTYYADSVKGRFTISRDNAKNTVYLQMNSLKPEDTAVSYCAADRYDSSQFYYWGQGTQVTVSS | low polyreactivity

Row | Sequence | polyreactivity (PSR sort gate)
23 | QVQLVESGGGLVQAGGSLRLSCAASGFIFYRYAMGWYRQAPGKEREFVAVISKSGGRTYYADSVKGRFTISRDNAKNTVYLQMNSLKPEDTAVYYCNRVYRPSRYDYWGQGTQVTVSS | high polyreactivity
24 | QVQLVESGGGLVQAGGSLRLSCAASGSIFLQNAMGWYRQAPGKERELVAAITNGGSTNYADSVKGRFTISRDNAKNTVYLQMNSLKPEDTAVYYCAVVRSYRGINDYWGQGTQVTVSS | low polyreactivity
25 | QVQLVESGGGLVQAGGSLRLSCAASGRIFRYNAMGWYRQAPGKERELVAAISGSGDRMYYADSVKGRFTISRDNAKNTVYFHMNSLKPEDTAVYYCAADVVWRQYGSWFYYWGQGTQVTVSS | high polyreactivity
26 | QVQLVESGGGLVQAGGSLRLSCAASGNIFIKNAMGWYRQAPGKERELVAAISFSGGSTYYADSVKGRFTISRDNAKNTVYLQMNSLKPEDTAVYYCNAVRRQARQYDYWGQGTQVTVSS | high polyreactivity
27 | QVQLVESGGGLVQAGGSLRLSCAASGSIFYFNAMGWYRQATGKERELVADISWSGGDSTYYADSVKGRFTISRDNAKNTVYLQMNSLKPEDTAVYYCAADLSYPDWSRYQWDMDYWGQGTQVTVSS | low polyreactivity
28 | QVQLVESGGGLVLAGGSLRLSCAASGSTFFSYMGWYREAPGKERELVAANTSGAITYYADSVKGRFTISRDNAKNTVYLQMNSLKPEDTAVYYCNTDRYYVTLRNLEMDYWGQGTQVTVSS | low polyreactivity
29 | PVQIVESGGGLVQAGGSLRLSCAASGFTFYSNAMGWYRQAPGKEWEMVAAISFSGTRTYYADSVKGRFTISRDNEKNTVYLQMNSLKPEDTAVYYCNAVAYNYPRTYDYWGQGTQVTVSS | high polyreactivity
30 | QVQLVESGGGLVQAGGSLRLSCAASGRTFVLYAMGWYRQAPGKERELVAAITSGGSTNYADSVKGRFTISRDNAKNTVYLQMNSLKPEDTAVYDCAAVPVRYRYSYGYYYWGQGTQVTVSS | high polyreactivity
31 | QVQLVESGGGLVQAGGSLRLSCAASGFILAGYAMGWYRQAPGKERELVAAINSRGTRTYYADSVKGRFTISRDNAKNTVYLQMNSLKPEDTAVYYCAVHVWGTYGSWEYYYWGQGTQVTVSS | high polyreactivity
32 | QVQLVESGGGLVQAGGSLRLSCAASGSTFGYYTMGWYRQAPGKERELVAAISYSGGRTFYADSVKGRFTISRDNAKNTVFLQMHCLKPEDTAVYYCNNRYIPSFLSHLDYWGQGTHVTVSS | high polyreactivity
33 | QVQLVESGGGLVQAGGSLRLSCAASGITFYGYTMGWYRQAPGKERELVATITRGGSTYYADSVKGRFTISRDNAKNSVYLQMNSLKPEDTAVYYCAADLKGNYYLGIARYVLYYWGQGTQVTVSS | low polyreactivity
34 | QVQLVESGGGLVQAGGSLRLSCAASGRTCRRYTIGWYRQAPGKERELVAAITSGGRTNYADSVKGRFTISRDNAKNTVYLQMNSLKPEDTAVYYCNAQNEIWRVTFSPYDRWGYDYWGQGTQVTVSS | low polyreactivity
35 | QVQLVESGGGLVQAGGSLRLSCAASGRIFGSNTMGWFRQAPGKERELVAAITGDDSTYADSVKGRFTISRDNAKNTVYLQMNSLKPVDTAVYYCAVVWVWDVWFLVYYWGQGTQVTVSS | low polyreactivity
36 | QVQLVESGAGLVQAGGSLRLSCAPSGRTFDYYAMGWYRQAPGKERELVADITKDGGSTYYADSVKGRFTISRDNAKNSVYLQMISLKPEDTAVYYCAADGPPQYYDPIHYDYWGQGTQVTVSS | low polyreactivity
37 | QVQLVEACGGLVQAGGSLRLSCAASRSIFPYNAMGWYRQAPGKDRELVATMSSGGSTNYADSVKGRFTISRDNAKNTVYLQKNSLKPEDTAVYYCNAEAAYYPLWMDYWGQGTQVTVSS | low polyreactivity
38 | QVHLVESGGGLVQAGGILRLSCAASMVWYRQAPGKERELVAAINTRTGTTYYADSVKGRFTISRDNAKNTVYLQMNSLKPEDTAVYYCAARTYRTRYYYWGQGTQVTVSS | high polyreactivity
39 | QVQLVESGGGLVQAGGSLRLSCAASGSIFKKYAMGWYRQSPGKERELVAAISSTGGSTKYADSVKGRFTISRDNAKNTVYLQMNSLKPEDTAVYYCAVRYKWPYDYWGQGTQVTVSS | high polyreactivity
40 | QVQLVESGGGLVQAGGSLRLSCAASGRIFYHNAMGWYRQAPGKERELVAVISWSGTRTYYADSVKGRFTISRDNAKNTVYLQMNSLKPEDTAVYYFNVEPYYTSYWIYPYIYTYDYWGQGTQVTVSS | high polyreactivity
41 | QVQLVESGGGLVQAGGSLRLSCAASGRILGRYAMGWYRQAPGKERELVAAISGSGTSTYYADSVKGRFTISRDNAKNTVYLQMNSLKPEDTAVYYCAAKWITRRGGDFDYWGQGTQVTVSS | high polyreactivity
42 | QVQRVESGGGLVQARGSLRLSCAASGRIFTKYAMGWYRQAPGKVRELVAGITSRGGSTYYADSVKGRFTISRDIANNTGYLQMNSLKPEDTAVYYCNAYRVGRYDYWGQGTQVTVSS | high polyreactivity
43 | QVQLVEAGGGLVQAGGSLRLSCAASGSIFVGNAMGWYRQAPGKERELVAAISSSGGRKFYADSVKGRFTISRDNAKNTVYLQMISLKPEDTAVYYCAAVYTHWQQRMDYWGQGTQVTVSS | high polyreactivity
